Data on one substance can be found in PMC10653379.

The test concerns the target eIF3a-HA (Trypanosoma brucei (endogenous in procyclic form strain 29-13)). The test is described as follows: proximity ligation.

As to DRBD18 (natural protein), the PLA dots per cell (dots per cell) turned out to be 8.
